Reference: PMC7822592, “The half-life of the bone-derived hormone osteocalcin is regulated through O-glycosylation in mice, but not in humans” (eLife, 2020)
No end group written: not given here. O‑glycan = not defined here

How the values were obtained:
[1] = target: T1, human plasmin (Homo sapiens, UniProt P00747); test: Plasmin enzymatic assay on OCN in heat-inactivated plasma; assay type: in vitro ADME; details: 2hrs, 37°C; for % OCN from initial: heat-inactivated Bglap-/- plasma diluted two times in 100 mM Tris pH 7.5, 50 ng/ml, ELISA; for % OCN from initial in plasmin (0.3 U/ml): inset graph, heat-inactivated Bglap-/- plasma, 50 ng/ml
T1 construct: different concentration of human plasmin (Sigma); purchased Sigma P1867
T1 sequence (P00747 581-810 limits assumed): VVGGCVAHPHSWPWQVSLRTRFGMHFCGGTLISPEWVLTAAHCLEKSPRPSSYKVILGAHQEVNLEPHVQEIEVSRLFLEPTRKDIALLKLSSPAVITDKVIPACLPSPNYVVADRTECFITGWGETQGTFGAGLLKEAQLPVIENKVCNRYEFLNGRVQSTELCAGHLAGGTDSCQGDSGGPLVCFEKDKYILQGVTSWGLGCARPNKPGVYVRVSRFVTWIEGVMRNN
T1 sequence (P00747 97-580 partner limits assumed): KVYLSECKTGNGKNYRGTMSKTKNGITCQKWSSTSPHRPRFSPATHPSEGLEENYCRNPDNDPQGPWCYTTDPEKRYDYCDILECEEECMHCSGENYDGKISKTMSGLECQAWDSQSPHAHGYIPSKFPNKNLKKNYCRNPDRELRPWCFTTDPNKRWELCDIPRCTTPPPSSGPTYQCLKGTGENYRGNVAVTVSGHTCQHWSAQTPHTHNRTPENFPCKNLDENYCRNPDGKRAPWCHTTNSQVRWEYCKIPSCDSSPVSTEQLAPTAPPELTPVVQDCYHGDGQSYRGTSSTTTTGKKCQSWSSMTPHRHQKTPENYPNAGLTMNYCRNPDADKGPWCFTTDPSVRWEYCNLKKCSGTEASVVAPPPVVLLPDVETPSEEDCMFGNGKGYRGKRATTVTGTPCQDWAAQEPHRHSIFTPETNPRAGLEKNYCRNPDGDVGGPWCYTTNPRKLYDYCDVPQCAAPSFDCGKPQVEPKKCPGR
Protocol: The plasmin enzymatic assay was performed on plasma ex vivo in the presence of non-glycosylated OCN and glycosylated OCN as follows: plasma from Bglap-/- mice was heat-inactivated for 30 min at 56°C, then diluted two times in the enzyme assay buffer containing 100 mM Tris buffer pH 7.5. Non-glycosylated OCN or glycosylated OCN was incubated at 50 ng/ml in the diluted plasma for two hours in the presence of different concentration of human plasmin (Sigma) ranging from 0 to 0.3 U/ml. After two hours, OCN level was measured using total mouse OCN ELISA. Results are represented as percentage of initial concentration of non-glycosylated and glycosylated OCN respectively.

[2] = Ex vivo half-life of mouse OCN in plasma; assay type: in vitro ADME; details: 100 ng/ml; for % OCN from initial: Bglap-/- mouse plasma
Protocol: The mouse OCN ex vivo half-life assays were performed with fresh plasma (lithium heparin) collected from four independent Bglap-/- mice. Glycosylated OCN produced in HEK293 cells and non-glycosylated OCN, produced in bacteria as previously described ([Ferron et al., 2012]), were incubated at 100 ng/ml in plasma at 37°C and OCN level was measured at indicated time points using the total mouse OCN ELISA assay described previously ([Ferron et al., 2010b]). […] The detection antibody is a goat polyclonal antibody directed against the C-terminal region (amino acids 26 to 46) of mouse OCN (anti-CTERM OCN). This assay detects with the same sensitivity glycosylated and non-glycosylated mouse OCN at concentration of 50 ng/ml or less (Figure 3—figure supplement 2). Therefore, all samples were diluted to be in this range before being measured by the ELISA. Human OCN half-life assay was performed ex vivo using Bglap-/- mice plasma and human OCN at 60 ng/ml. Human OCN level was measured at different time point using the human ucOCN ELISA described above. At the experiment start point (T0), an aliquot of plasma was diluted in ELISA assay buffer and kept on ice for OCN measurements. In some experiments, plasma was heat-inactivated for 30 min at 56°C, or treated with EDTA (10 mM, Wisent), phenylmethylsulfonyl fluoride (PMSF, 10 mM, Sigma), pepstatin A (Pep A, 10 μM, Sigma) which inhibits aspartic proteases (pepsin, cathepsin D, renin, chymosin), RVKR (Dec-RVKR-CMK, 50 μM; Tocris) or talabostat (10 mM; Tocris). Results are calculated in percentage relative to the initial concentration of non-glycosylated and glycosylated OCN respectively.

[3] = system: INS-1 832/3 cells; test: OCN stability in INS-1 832/3 cell culture media; assay type: in vitro ADME, rat; details: 8 hours at 4°C without cells, ELISA

## O-gly ucOCN: O-glycosylated uncarboxylated mouse osteocalcin produced and purified from HEK293 as Fc fusion, released by thrombin (YLGASVPS(O‑glycan)PDPLEPTREQCELNPACDELSDQYGLKTAYKRIYGITI; ends and bridges not checked; also: O-glycosylated (HexNAc, Hex, NANA); UniProt P86546 50-95, looked up)
[1]; plasmin 0 U/ml, replicate 1
  % OCN from initial: 96.7%
[1]; plasmin 0 U/ml, replicate 2
  % OCN from initial: 103.3%
[1]; plasmin 0.024 U/ml, replicate 1
  % OCN from initial: 81.4%
[1]; plasmin 0.024 U/ml, replicate 2
  % OCN from initial: 86.9%
[1]; plasmin 0.12 U/ml, replicate 1
  % OCN from initial: 63.3%
[1]; plasmin 0.12 U/ml, replicate 2
  % OCN from initial: 75.7%
[1]; plasmin 0.3 U/ml, replicate 1
  % OCN from initial: 34.5%
[1]; plasmin 0.3 U/ml, replicate 2
  % OCN from initial: 40.8%
[1]; replicate 1
  % OCN from initial in plasmin (0.3 U/ml): 34.5%
[1]; replicate 2
  % OCN from initial in plasmin (0.3 U/ml): 40.8%
[1]; replicate 3
  % OCN from initial in plasmin (0.3 U/ml): 32.1%
[1]; replicate 4
  % OCN from initial in plasmin (0.3 U/ml): 27.0%
[1]; replicate 5
  % OCN from initial in plasmin (0.3 U/ml): 38.6%
[2]; 37°C, 0 min, ELISA, replicate 1
  % OCN from initial: 100.0%
[2]; 37°C, 0 min, ELISA, replicate 2
  % OCN from initial: 100.0%
[2]; 37°C, 0 min, ELISA, replicate 3
  % OCN from initial: 100.0%
[2]; 37°C, 0 min, ELISA, replicate 4
  % OCN from initial: 100.0%
[2]; 37°C, 0 min, ELISA, replicate 5
  % OCN from initial: 100.0%
[2]; 37°C, 15 min, ELISA, replicate 1
  % OCN from initial: 104.1%
[2]; 37°C, 15 min, ELISA, replicate 2
  % OCN from initial: 103.7%
[2]; 37°C, 15 min, ELISA, replicate 3
  % OCN from initial: 102.4%
[2]; 37°C, 15 min, ELISA, replicate 4
  % OCN from initial: 105.4%
[2]; 37°C, 15 min, ELISA, replicate 5
  % OCN from initial: 92.4%
[2]; 37°C, 30 min, ELISA, replicate 1
  % OCN from initial: 101.9%
[2]; 37°C, 30 min, ELISA, replicate 2
  % OCN from initial: 103.9%
[2]; 37°C, 30 min, ELISA, replicate 3
  % OCN from initial: 104.6%
[2]; 37°C, 30 min, ELISA, replicate 4
  % OCN from initial: 102.8%
[2]; 37°C, 30 min, ELISA, replicate 5
  % OCN from initial: 91.2%
[2]; 37°C, 60 min, ELISA, replicate 1
  % OCN from initial: 103.5%
[2]; 37°C, 60 min, ELISA, replicate 2
  % OCN from initial: 108.3%
[2]; 37°C, 60 min, ELISA, replicate 3
  % OCN from initial: 103.5%
[2]; 37°C, 60 min, ELISA, replicate 4
  % OCN from initial: 102.6%
[2]; 37°C, 60 min, ELISA, replicate 5
  % OCN from initial: 95.6%
[2]; 37°C, 90 min, ELISA, replicate 1
  % OCN from initial: 108.4%
[2]; 37°C, 90 min, ELISA, replicate 2
  % OCN from initial: 106.6%
[2]; 37°C, 90 min, ELISA, replicate 3
  % OCN from initial: 107.8%
[2]; 37°C, 90 min, ELISA, replicate 4
  % OCN from initial: 102.6%
[2]; 37°C, 90 min, ELISA, replicate 5
  % OCN from initial: 92.9%
[2]; 37°C, 120 min, ELISA, replicate 1
  % OCN from initial: 105.8%
[2]; 37°C, 120 min, ELISA, replicate 2
  % OCN from initial: 103.2%
[2]; 37°C, 120 min, ELISA, replicate 3
  % OCN from initial: 106.0%
[2]; 37°C, 120 min, ELISA, replicate 4
  % OCN from initial: 107.0%
[2]; 37°C, 120 min, ELISA, replicate 5
  % OCN from initial: 90.1%
[2]; 37°C, 180 min, ELISA, replicate 1
  % OCN from initial: 106.8%
[2]; 37°C, 180 min, ELISA, replicate 2
  % OCN from initial: 107.9%
[2]; 37°C, 180 min, ELISA, replicate 3
  % OCN from initial: 107.4%
[2]; 37°C, 180 min, ELISA, replicate 4
  % OCN from initial: 119.0%
[2]; 37°C, 180 min, ELISA, replicate 5
  % OCN from initial: 78.8%
[2]; 37°C, 300 min, ELISA, replicate 1
  % OCN from initial: 106.5%
[2]; 37°C, 300 min, ELISA, replicate 2
  % OCN from initial: 103.5%
[2]; 37°C, 300 min, ELISA, replicate 3
  % OCN from initial: 104.6%
[2]; 37°C, 300 min, ELISA, replicate 4
  % OCN from initial: 102.2%
[2]; 37°C, 300 min, ELISA, replicate 5
  % OCN from initial: 88.0%
[2]; Figure 3D, 2hrs, 37°C, Not HI, ELISA, replicate 1
  % OCN from initial: 100.8%
[2]; Figure 3D, 2hrs, 37°C, Not HI, ELISA, replicate 2
  % OCN from initial: 92.4%
[2]; Figure 3D, 2hrs, 37°C, Not HI, ELISA, replicate 3
  % OCN from initial: 106.8%
[2]; Figure 3D, T0, ELISA, replicate 1
  % OCN from initial: 101.5%
[2]; Figure 3D, T0, ELISA, replicate 2
  % OCN from initial: 94.9%
[2]; Figure 3D, T0, ELISA, replicate 3
  % OCN from initial: 103.6%
[2]; Figure 3 supplement 3A, 37°C, T=2hours, replicate 1
  % OCN from initial: 90.8%
[2]; Figure 3 supplement 3A, 37°C, T=2hours, replicate 2
  % OCN from initial: 95.5%
[2]; Figure 3 supplement 3A, 37°C, T=2hours, replicate 3
  % OCN from initial: 95.0%
[2]; Figure 3 supplement 3A, T0, replicate 1
  % OCN from initial: 105.0%
[2]; Figure 3 supplement 3A, T0, replicate 2
  % OCN from initial: 101.3%
[2]; Figure 3 supplement 3A, T0, replicate 3
  % OCN from initial: 93.7%
[2]; fresh Bglap-/- mouse plasma (lithium heparin), 37°C, total mouse OCN ELISA, n = 4 plasma
  stable in plasma for: more than 5 hr
[3]; replicate 1
  OCN in stimulation media: 0.15 ng/mL
[3]; replicate 2
  OCN in stimulation media: 0.15 ng/mL
[3]; replicate 3
  OCN in stimulation media: 0.14 ng/mL
